This note sets out measurements from patent publication US20150322162A1.

The target of experiment [1] is c-Met-Fc (#358-MT/CF, R&D Systems) (UniProt P08581). Description: SPR, Biacore T100; antibody captured by human Fab binder on CM5 chip, c-Met-Fc injected.
The target of experiment [2] is HER2-Fc (#1129-ER, R&D Systems) (UniProt P04626). Description: SPR, Biacore T100; antibody captured by human Fab binder on CM5 chip, HER2-Fc injected. (In SPR one partner is held on a chip, and binding of the other changes the refractive index at the surface.)

UniProt P08581, sequence (P08581 25-932 limits assumed): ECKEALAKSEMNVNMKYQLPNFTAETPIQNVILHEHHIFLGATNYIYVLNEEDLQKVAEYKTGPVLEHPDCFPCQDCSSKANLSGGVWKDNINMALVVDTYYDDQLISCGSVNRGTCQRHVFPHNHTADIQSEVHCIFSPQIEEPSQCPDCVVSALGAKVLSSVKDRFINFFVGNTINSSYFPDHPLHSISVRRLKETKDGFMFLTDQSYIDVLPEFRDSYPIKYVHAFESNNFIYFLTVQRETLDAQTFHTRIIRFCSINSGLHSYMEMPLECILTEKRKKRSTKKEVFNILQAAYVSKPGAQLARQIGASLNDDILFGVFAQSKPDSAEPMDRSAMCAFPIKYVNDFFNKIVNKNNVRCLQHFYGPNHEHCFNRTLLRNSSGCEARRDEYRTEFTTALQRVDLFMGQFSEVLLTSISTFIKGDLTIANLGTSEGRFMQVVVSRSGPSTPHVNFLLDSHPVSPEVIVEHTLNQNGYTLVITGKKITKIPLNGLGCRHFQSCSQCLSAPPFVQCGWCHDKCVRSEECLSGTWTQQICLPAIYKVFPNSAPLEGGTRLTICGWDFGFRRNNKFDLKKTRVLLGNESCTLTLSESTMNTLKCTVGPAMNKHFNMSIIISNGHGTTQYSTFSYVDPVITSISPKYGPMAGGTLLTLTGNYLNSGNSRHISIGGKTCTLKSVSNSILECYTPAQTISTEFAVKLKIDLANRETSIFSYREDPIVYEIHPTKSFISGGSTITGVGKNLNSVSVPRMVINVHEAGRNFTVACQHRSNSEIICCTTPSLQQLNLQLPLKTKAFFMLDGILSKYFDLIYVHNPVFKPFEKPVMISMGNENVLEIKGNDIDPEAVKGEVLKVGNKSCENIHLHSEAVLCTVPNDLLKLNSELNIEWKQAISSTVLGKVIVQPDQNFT

B1: MH2-12 anti-c-Met/anti-HER2 bispecific antibody (bispecific antibody, part only; not given: nothing needed for binding, IgG2, not shown: another chain or arm of the molecule; small tags and cut ends)
heavy: EVQLVESGGGLVQPGGSLRLSCAASGFTFTDYYMSWVRQAPGKGLEWLGFIRNKANGYTTEYSASVKGRFTISRDNSKNTLYLQMNSLRAEDTAVYYCARDNWFAYWGQGTLVTVSSASTKGPSVFPLAPCSRSTSESTAALGCLVKDYFPEPVTVSWNSGALTSGVHTFPAVLQSSGLYSLSSVVTVPSSNFGTQTYTCNVDHKPSNTKVDKTVERKCCVECPPCPAPPVAGPSVFLFPPKPKDTLMISRTPEVTCVVVDVSHEDPEVQFNWYVDGVEVHNAKTKPREEQFNSTFRVVSVLTVVHQDWLNGKEYKCKVSNKGLPAPIEKTISKTKGQPREPQVYTLPPSREEMTKNQVSLTCLVKGFYPSDIAVEWESNGQPENNYKTTPPMLDSDGSFFLYSKLTVDKSRWQQGNVFSCSVMHEALHNHYTQKSLSLSPGKGGGGSGGGGSEVQLVQSGAEVKKPGESLKISCKGSGYSFTSYWIGWVRQMPGKGLEWMGIIYPGDSDTRYSPSFQGQVTISADKSISTAYLQWSSLKASDTAMYYCARHYYDSSGYSYFPDYWGQGTLVTVSS
VL: QTVVTQEPSFSVSPGGTVTLTCGLSSGSVSTSYYPSWYQQTPGQAPRTLIYSTNTRSSGVPDRFSGSILGNKAALTITGAQADDESDYYCVLYMGSGIWVFGGGTKLTVL
light: DIQMTQSPSSLSASVGDRVTITCKSSQSLLASGNQNNYLAWYQQKPGKAPKMLIIWASTRVSGVPSRFSGSGSGTDFTLTISSLQPEDFATYYCQQSYSRPYTFGQGTKVEIKRTVAAPSVFIFPPSDEQLKSGTASVVCLLNNFYPREAKVQWKVDNALQSGNSQESVTEQDSKDSTYSLSSTLTLSKADYEKHKVYACEVTHQGLSSPVTKSFNRGEC
Regarding B1, in experiment [1], the Kd (commonly the equilibrium constant for the complex coming apart) was determined as 0.04 nM; the off-rate constant (koff) (usually a measure of how fast the partners let go of each other) is 1.9e-05 s⁻¹; the association rate constant (kon) (as a rule, the second-order rate constant of association) worked out at 500000 M⁻¹ s⁻¹. In experiment [2], this molecule came in with a dissociation constant (Kd) of less than 0.01 nM, an off-rate (koff) of less than 5.8e-05 s⁻¹ and a kon of 200000 M⁻¹ s⁻¹.

B2: MH2-18 anti-c-Met/anti-HER2 bispecific antibody (bispecific antibody, part only; not given: nothing needed for binding, IgG2, not shown: another chain or arm of the molecule; small tags and cut ends)
heavy: EVQLVESGGGLVQPGGSLRLSCAASGFTFTDYYMSWVRQAPGKGLEWLGFIRNKANGYTTEYSASVKGRFTISRDNSKNTLYLQMNSLRAEDTAVYYCARDNWFAYWGQGTLVTVSSASTKGPSVFPLAPCSRSTSESTAALGCLVKDYFPEPVTVSWNSGALTSGVHTFPAVLQSSGLYSLSSVVTVPSSNFGTQTYTCNVDHKPSNTKVDKTVERKCCVECPPCPAPPVAGPSVFLFPPKPKDTLMISRTPEVTCVVVDVSHEDPEVQFNWYVDGVEVHNAKTKPREEQFNSTFRVVSVLTVVHQDWLNGKEYKCKVSNKGLPAPIEKTISKTKGQPREPQVYTLPPSREEMTKNQVSLTCLVKGFYPSDIAVEWESNGQPENNYKTTPPMLDSDGSFFLYSKLTVDKSRWQQGNVFSCSVMHEALHNHYTQKSLSLSPGKGGGGSGGGGSEVQLVQSGAEVKKPGESLKISCKGSGYSFTSYWIGWVRQMPGKGLEWMGIIYPGDSDTRYSPSFQGQVTISADKSISTAYLQWSSLKASDTAMYYCARLVVGANPPTYYFDYWGQGTLVTVSS
VL: QAVVTQEPSFSVSPGGTVTLTCGLSSGSVSTSYYPSWYQQTPGQAPRTLIYSTNTRSSGVPDRFSGSILGNKAALTITGAQTDDESDYYCVLYMGSGISLFGGGTKVTVL
light: DIQMTQSPSSLSASVGDRVTITCKSSQSLLASGNQNNYLAWYQQKPGKAPKMLIIWASTRVSGVPSRFSGSGSGTDFTLTISSLQPEDFATYYCQQSYSRPYTFGQGTKVEIKRTVAAPSVFIFPPSDEQLKSGTASVVCLLNNFYPREAKVQWKVDNALQSGNSQESVTEQDSKDSTYSLSSTLTLSKADYEKHKVYACEVTHQGLSSPVTKSFNRGEC
In experiment [1], B2 showed a Kd of 0.03 nM, a koff of 1.5e-05 s⁻¹ and a kon of 590000 M⁻¹ s⁻¹. For the same molecule, in experiment [2], the Kd was less than 0.01 nM, the off-rate (koff) was less than 1.3e-05 s⁻¹ and the kon came out at 820000 M⁻¹ s⁻¹.
